Tests used:
[1] = target: rabbit muscle actin (F-actin) (rabbit, UniProt P68135 1-377); experiment: co-sedimentation; high-speed F-actin pelleting: purified Vps1 (supernatant of a 90,000 x g pre-spin) mixed with pre-polymerized yeast or rabbit muscle F-actin (10% KME pH 8), 15 min, spun 90,000 x g; supernatant and pellet by SDS-PAGE, densitometry; KD from a single site binding curve over a range of Vps1 concentrations; 1.5 uM Vps1 with 3 uM F-actin in Figure 1A; conditions: both partners purified
[2] = target: the molecule itself; experiment: negative-stain electron microscopy; purified Vps1 imaged directly, adsorbed on carbon-coated grids, negative staining with uranyl formate; oligomeric rings

Binder	Kd [1]	binding result [2]
Vps1 (yeast dynamin), wild type, recombinant His tag fusion (natural protein, yeast (budding yeast), UniProt P21576 1-704, looked up, Vps1, dynamin-like protein of budding yeast; wild-type VPS1 expressed as a His tag fusion; Template plasmids pKA677 and pKA850 are named; Forms oligomeric rings by EM; also called wild-type Vps1; yeast dynamin Vps1; source: E. coli (C43), purified) MDEHLISTINKLQDALAPLGGGSQSPIDLPQITVVGSQSSGKSSVLENIVGRDFLPRGTGIVTRRPLVLQLINRRPKKSEHAKVNQTANELIDLNINDDDKKKDESGKHQNEGQSEDNKEEWGEFLHLPGKKFYNFDEIRKEIVKETDKVTGANSGISSVPINLRIYSPHVLTLTLVDLPGLTKVPVGDQPPDIERQIKDMLLKYISKPNAIILSVNAANTDLANSDGLKLAREVDPEGTRTIGVLTKVDLMDQGTDVIDILAGRVIPLRYGYIPVINRGQKDIEHKKTIREALENERKFFENHPSYSSKAHYCGTPYLAKKLNSILLHHIRQTLPEIKAKIEATLKKYQNELINLGPETMDSASSVVLSMITDFSNEYAGILDGEAKELSSQELSGGARISYVFHETFKNGVDSLDPFDQIKDSDIRTIMYNSSGSAPSLFVGTEAFEVLVKQQIRRFEEPSLRLVTLVFDELVRMLKQIISQPKYSRYPALREAISNQFIQFLKDATIPTNEFVVDIIKAEQTYINTAHPDLLKGSQAMVMVEEKLHPRQVAVDPKTGKPLPTQPSSSKAPVMEEKSGFFGGFFSTKNKKKLAALESPPPVLKATGQMTERETMETEVIKLLISSYFSIVKRTIADIIPKALMLKLIVKSKTDIQKVLLEKLYGKQDIEELTKENDITIQRRKECKKMVEILRNASQIVSSV	920 ± 310 nM	binds
Vps1 RR457,458EE, recombinant His tag fusion (natural protein, yeast (budding yeast), UniProt P21576 1-704, looked up, Vps1 of budding yeast with the charge-switch mutations R457E and R458E in a helix of the stalk domain; Made by site-directed mutagenesis of template plasmids pKA677 and pKA850; also called RR-EE; Vps1 RR-EE; source: E. coli (C43), purified) MDEHLISTINKLQDALAPLGGGSQSPIDLPQITVVGSQSSGKSSVLENIVGRDFLPRGTGIVTRRPLVLQLINRRPKKSEHAKVNQTANELIDLNINDDDKKKDESGKHQNEGQSEDNKEEWGEFLHLPGKKFYNFDEIRKEIVKETDKVTGANSGISSVPINLRIYSPHVLTLTLVDLPGLTKVPVGDQPPDIERQIKDMLLKYISKPNAIILSVNAANTDLANSDGLKLAREVDPEGTRTIGVLTKVDLMDQGTDVIDILAGRVIPLRYGYIPVINRGQKDIEHKKTIREALENERKFFENHPSYSSKAHYCGTPYLAKKLNSILLHHIRQTLPEIKAKIEATLKKYQNELINLGPETMDSASSVVLSMITDFSNEYAGILDGEAKELSSQELSGGARISYVFHETFKNGVDSLDPFDQIKDSDIRTIMYNSSGSAPSLFVGTEAFEVLVKQQIEEFEEPSLRLVTLVFDELVRMLKQIISQPKYSRYPALREAISNQFIQFLKDATIPTNEFVVDIIKAEQTYINTAHPDLLKGSQAMVMVEEKLHPRQVAVDPKTGKPLPTQPSSSKAPVMEEKSGFFGGFFSTKNKKKLAALESPPPVLKATGQMTERETMETEVIKLLISSYFSIVKRTIADIIPKALMLKLIVKSKTDIQKVLLEKLYGKQDIEELTKENDITIQRRKECKKMVEILRNASQIVSSV		binds

— publication PMC4386032, “A Dynamin-Actin Interaction Is Required for Vesicle Scission during Endocytosis in Yeast” (Current Biology, 2015)
